These results are taken from patent US20170204167A1.

Assay [1] addresses HA of B/Ohio/1/05 (influenza B virus B/Ohio/1/05). In words: ELISA on HA. On the technique in general: An ELISA detects its analyte on a solid surface through an enzyme-linked reagent.
Assay [2] concerns the target HA of H3N2 A/Brisbane/10/07 (influenza A virus H3N2 A/Brisbane/10/07). As to the kind of experiment: ELISA on HA.
Assay [3] deals with HA of H1N1 A/Brisbane/59/07 (influenza A virus H1N1 A/Brisbane/59/07). In words: ELISA on recombinant or purified HA.
The target in assay [4] is HA of H3N2 A/Brisbane/10/07 (influenza A virus H3N2 A/Brisbane/10/07). In words: ELISA on recombinant or purified HA.
Assay [5] addresses HA of H3N2 A/New York/55/04 (influenza A virus H3N2 A/New York/55/04). In words: ELISA on recombinant or purified HA.
The target of assay [6] is HA of H3N2 A/Wyoming/3/03 (influenza A virus H3N2 A/Wyoming/3/03). As to the kind of experiment: ELISA on recombinant or purified HA.

B1: FI6 variant 2 (antibody, V domains shown)
VH: QVQLVQSGGGVVQPGRSLRLSCVASGFTFSTYAMHWVRQAPGRGLEWVAVISYDGNYKYYADSVKGRFSISRDNSNNTLHLEMNTLRTEDTALYYCAKDSQLRSLLYFEWLSQGYFDPWGQGTLVTVTS
VL: DIQMTQSPDSLAVSLGARATINCKSSQSVTFNYKNYLAWYQQKPGQPPKVLIYWASARESGVPDRFSGSGSGTDFTLTISSLQAEDVAVYYCQQHYRTPPTFGQGTKVEIK
Broadly, the EC50 is the concentration needed to bring the measured effect to its halfway point. Take B1: the EC50 in assay [1] was greater than 20 µg/mL; in assay [3], 0.015 µg/mL; in assay [4], 0.041 µg/mL; in assay [5], 0.032 µg/mL; in assay [6], 0.019 µg/mL. For the same molecule, the Binding to HA by ELISA (% of subtype specific control antibodies) in assay [2] was found to be 68.5%.

B2: FI28 variant 1 (antibody, V domains shown)
VH: EVQLVESGGGAVQPGESLKLSCAASGFTFSNYGMHWVRQAPGKGLEWVAVISYDGSNKYYADSVKGRFTISRDNSKDTLYLQMNSLRAEDTALFYCAKERPLRLLRYFDWLSGGANDYWGQGTLVTVSS
VL: DIVMTQSPDSLAVSLGERATINCKSSQSVLYSSNNKNYLAWYQQKPGQPPKLLIDWASTRESGVPDRFSGSGSGTDFTLTISNLQVEDVAVYYCQQYYRSPSFGQGTKLEIK
In assay [2], B2 showed a Binding to HA by ELISA (% of subtype specific control antibodies) of 1.3%.
